Earlier results on one molecule are cited in patent publication US20150316548A1, “PROGRANULIN AS MARKER FOR AUTOIMMUNE DISORDERS” (UNIVERSITAET DES SAARLANDES, priority 2012, published 2015).

In data set [1] the test system is cytotoxic effects of TNF-α. To be noted: in vitro; cited from earlier work.
For data set [2] the following is noted: progranulin, reference [1]; cited from earlier work.
In the next data set the test system is TNF-α-receptors 1 and 2. To be noted: mouse models, versus Etanercept; cited from earlier work.
In another data set the test system is TNF-Tg/GRN−/− mice. To be noted: cited from earlier work.

B1: progranulin: secreted glycoprotein, precursor with N-terminal signal peptide and seven granulin motifs; SEQ ID NO: 1 (protein, listed as Homo sapiens)
chain: MWTLVSWVALTAGLVAGTRCPDGQFCPVACCLDPGGASYSCCRPLLDKWPTTLSRHLGGPCQVDAHCSAGHSCIFTVSGTSSCCPFPEAVACGDGHHCCPRGFHCSADGRSCFQRSGNNSVGAIQCPDSQFECPDFSTCCVMVDGSWGCCPMPQASCCEDRVHCCPHGAFCDLVHTRCITPTGTHPLAKKLPAQRTNRAVALSSSVMCPDARSRCPDGSTCCELPSGKYGCCPMPNATCCSDHLHCCPQDTVCDLIQSKCLSKENATTDLLTKLPAHTVGDVKCDMEVSCPDGYTCCRLQSGAWGCCPFTQAVCCEDHIHCCPAGFTCDTQKGTCEQGPHQVPWMEKAPAHLSLPDPQALKRDVPCDNVSSCPSSDTCCQLTSGEWGCCPIPEAVCCSDHQHCCPQGYTCVAEGQCQRGSEIVAGLEKMPARRASLSHPRDIGCDQHTSCPVGQTCCPSLGGSWACCQLPHAVCCEDRQHCCPAGYTCNVKARSCEKEVVSAQPATFLARSPHVGVKDVECGEGHFCHDNQTCCRDNRQGWACCPYRQGVCCADRRHCCPAGFRCAARGTKCLRREAPRWDAPLRDPALRQLL
modifications: misc (1)..(593) Progranulin
In the case of B1, the “protection of cells from cytotoxic effects of TNF-α” value in data set [1] is recorded as “protected cells in vitro from cytotoxic effects of TNF-α”. Moreover, the half-life entry in data set [2] is on record as “about 40 h”. The “strength of the anti-inflammatory effect” value in the data set on TNF-α-receptors 1 and 2 is on record as “comparable to the effect of the synthetic TNF-blocker “Etanercept””. Moreover, in the data set with TNF-Tg/GRN−/− mice, the “clinical response of spontaneous arthritis” value is reported as “rapid clinical recovery” and the “plasma levels of cartilage oligomeric matrix protein (COMP)” value is “decreased”.
